Measured values as given in patent publication US20140046032A1 (Sanofi, published 2014).

T1: recombinant murine FcγRI (murine, UniProt P26151 25-297)
T1 construct: Bought
T1 sequence (looked up): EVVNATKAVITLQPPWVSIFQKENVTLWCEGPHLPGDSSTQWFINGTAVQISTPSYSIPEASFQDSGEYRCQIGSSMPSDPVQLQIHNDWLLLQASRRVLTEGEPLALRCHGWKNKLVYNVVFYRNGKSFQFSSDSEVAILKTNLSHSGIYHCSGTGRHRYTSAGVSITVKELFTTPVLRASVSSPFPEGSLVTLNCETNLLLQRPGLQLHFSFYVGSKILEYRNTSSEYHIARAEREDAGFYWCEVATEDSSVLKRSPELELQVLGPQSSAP

T2: recombinant murine FcγRIV (murine, UniProt A0A0B4J1G0 21-203)
T2 construct: Bought
T2 sequence: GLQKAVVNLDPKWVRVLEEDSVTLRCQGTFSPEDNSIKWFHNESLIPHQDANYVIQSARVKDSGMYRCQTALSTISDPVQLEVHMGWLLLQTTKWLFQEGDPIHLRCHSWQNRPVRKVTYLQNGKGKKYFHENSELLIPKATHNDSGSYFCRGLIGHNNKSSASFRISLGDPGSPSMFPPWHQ

T3: recombinant murine FcγRIIb (murine, UniProt P08101 30-207, limits assumed)
T3 construct: Bought
T3 sequence (looked up): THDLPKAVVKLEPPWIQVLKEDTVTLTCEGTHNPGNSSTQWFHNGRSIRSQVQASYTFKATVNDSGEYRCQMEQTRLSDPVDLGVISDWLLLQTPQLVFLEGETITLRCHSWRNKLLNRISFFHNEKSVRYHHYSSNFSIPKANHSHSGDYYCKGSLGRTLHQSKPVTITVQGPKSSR

T4: recombinant murine FcγRIII (murine, UniProt P08508 31-215)
T4 construct: Bought
T4 sequence (looked up): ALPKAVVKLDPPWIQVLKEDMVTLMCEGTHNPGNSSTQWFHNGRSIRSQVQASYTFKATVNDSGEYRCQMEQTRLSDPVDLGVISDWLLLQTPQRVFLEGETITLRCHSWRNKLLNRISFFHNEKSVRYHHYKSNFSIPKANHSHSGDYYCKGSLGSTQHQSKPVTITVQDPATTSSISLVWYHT


Tests used:
[1] = target: lectin Maackia amurensis (MAA) (Maackia amurensis); experiment: enzyme-linked lectin assay (ELLA) with Maackia amurensis lectin (MAA, α-2,3 sialic acid); signal against µg of mAb, linear axis
Chain of lectin Maackia amurensis (MAA) (Maackia amurensis) (P0DKL3 30-278): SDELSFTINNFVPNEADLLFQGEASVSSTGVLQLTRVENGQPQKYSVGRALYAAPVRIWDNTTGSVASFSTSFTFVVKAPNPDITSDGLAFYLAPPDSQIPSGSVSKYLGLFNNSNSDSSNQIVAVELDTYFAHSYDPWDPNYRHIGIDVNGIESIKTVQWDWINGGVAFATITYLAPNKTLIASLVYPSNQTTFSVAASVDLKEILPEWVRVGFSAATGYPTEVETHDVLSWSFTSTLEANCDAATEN

[2] = target: T1, recombinant murine FcγRI; experiment: SPR, Biacore 3000
[3] = target: T2, recombinant murine FcγRIV; experiment: SPR, Biacore 3000
[4] = target: T3, recombinant murine FcγRIIb; experiment: SPR, Biacore 3000
[5] = target: T4, recombinant murine FcγRIII; experiment: SPR, Biacore 3000

Row | EC50 (read off the curve) [1] | binding result [2] | binding result [3] | Kd [4] | Kd [5] | Molecule
1 |  | no binding | no binding |  |  | antiAbeta_13C3_D257A mAb produced without co-expression of SIAT1 and B4GT1 (batch LP10116, low sialic acid content) (antibody, mouse IgG1, kappa, Fc N-glycan G0F/G0F, low sialic acid content, also called low sialylated antiAbeta-13C3_D257A) heavy: QVQLQQSGPELVRPGVSVKISCKGSGYTFTDYAMHWVKQSHAKSLEWIGVISTKYGKTNYNQKFKGKATMTVDKSSSTAYMELARLTSEDSAIYYCARGDDGYSWGQGTSVTVSSAKTTPPSVYPLAPGSAAQTNSMVTLGCLVKGYFPEPVTVTWNSGSLSSGVHTFPAVLQSDLYTLSSSVTVPSSTWPSETVTCNVAHPASSTKVDKKIVPRDCGCKPCICTVPEVSSVFIFPPKPKDVLTITLTPKVTCVVVAISKDDPEVQFSWFVDDVEVHTAQTQPREEQFNSTFRSVSELPIMHQDWLNGKEFKCRVNSAAFPAPIEKTISKTKGRPKAPQVYTIPPPKEQMAKDKVSLTCMITDFFPEDITVEWQWNGQPAENYKNTQPIMDTDGSYFVYSKLNVQKSNWEAGNTFTCSVLHEGLHNHHTEKSLSHSPG light: DVVMTQTPLSLPVSLGDQASISCRSGQSLVHSNGNTYLHWYLQKPGQSPKLLIYTVSNRFSGVPDRFSGSGSGSDFTLKISRVEAEDLGVYFCSQNTFVPWTFGGGTKLEIKRADAAPTVSIFPPSSEQLTSGGASVVCFLNNFYPKDINVKWKIDGSERQNGVLNSWTDQDSKDSTYSMSSTLTLTKDEYERHNSYTCEATHKTSTSPIVKSFNRNEC
2 |  | no binding | no binding | 354 nM | 471 nM | antiAbeta_13C3 mAb (murine, batch LP09009, low sialic acid content) (antibody, mouse IgG1, kappa, Fc N-glycan with low sialic acid content, Murine IgG1 heavy chain, murine Ckappa light chain; also called antiAbeta-13C13 mAb; original antiAbeta-13C3) heavy: QVQLQQSGPELVRPGVSVKISCKGSGYTFTDYAMHWVKQSHAKSLEWIGVISTKYGKTNYNQKFKGKATMTVDKSSSTAYMELARLTSEDSAIYYCARGDDGYSWGQGTSVTVSSAKTTPPSVYPLAPGSAAQTNSMVTLGCLVKGYFPEPVTVTWNSGSLSSGVHTFPAVLQSDLYTLSSSVTVPSSTWPSETVTCNVAHPASSTKVDKKIVPRDCGCKPCICTVPEVSSVFIFPPKPKDVLTITLTPKVTCVVVDISKDDPEVQFSWFVDDVEVHTAQTQPREEQFNSTFRSVSELPIMHQDWLNGKEFKCRVNSAAFPAPIEKTISKTKGRPKAPQVYTIPPPKEQMAKDKVSLTCMITDFFPEDITVEWQWNGQPAENYKNTQPIMDTDGSYFVYSKLNVQKSNWEAGNTFTCSVLHEGLHNHHTEKSLSHSPG light: DVVMTQTPLSLPVSLGDQASISCRSGQSLVHSNGNTYLHWYLQKPGQSPKLLIYTVSNRFSGVPDRFSGSGSGSDFTLKISRVEAEDLGVYFCSQNTFVPWTFGGGTKLEIKRADAAPTVSIFPPSSEQLTSGGASVVCFLNNFYPKDINVKWKIDGSERQNGVLNSWTDQDSKDSTYSMSSTLTLTKDEYERHNSYTCEATHKTSTSPIVKSFNRNEC

Further lines, the molecule ahead of its results:

Row | Molecule | EC50 (read off the curve) [1] | binding result [2] | binding result [3] | Kd [4] | Kd [5]
3 | fetuin | 0.2 µg |  |  |  | 
4 | α-2,6 sialylated antiAbeta-13C3_D257A mAb (co-expressed with SIAT1 and B4GT1) (antibody, mouse IgG1, kappa, Fc N-glycan essentially α-2,6-sialylated, G2F/G2F + 4 NeuNAc per mAb (very high sialic acid content), Small-scale batch LP10094, large-scale batch LP10104 and a CHO-produced batch are treated as this one molecule; also called antiAbeta_13C3_D257A batch LP10104; batch LP10094) heavy: QVQLQQSGPELVRPGVSVKISCKGSGYTFTDYAMHWVKQSHAKSLEWIGVISTKYGKTNYNQKFKGKATMTVDKSSSTAYMELARLTSEDSAIYYCARGDDGYSWGQGTSVTVSSAKTTPPSVYPLAPGSAAQTNSMVTLGCLVKGYFPEPVTVTWNSGSLSSGVHTFPAVLQSDLYTLSSSVTVPSSTWPSETVTCNVAHPASSTKVDKKIVPRDCGCKPCICTVPEVSSVFIFPPKPKDVLTITLTPKVTCVVVAISKDDPEVQFSWFVDDVEVHTAQTQPREEQFNSTFRSVSELPIMHQDWLNGKEFKCRVNSAAFPAPIEKTISKTKGRPKAPQVYTIPPPKEQMAKDKVSLTCMITDFFPEDITVEWQWNGQPAENYKNTQPIMDTDGSYFVYSKLNVQKSNWEAGNTFTCSVLHEGLHNHHTEKSLSHSPG light: DVVMTQTPLSLPVSLGDQASISCRSGQSLVHSNGNTYLHWYLQKPGQSPKLLIYTVSNRFSGVPDRFSGSGSGSDFTLKISRVEAEDLGVYFCSQNTFVPWTFGGGTKLEIKRADAAPTVSIFPPSSEQLTSGGASVVCFLNNFYPKDINVKWKIDGSERQNGVLNSWTDQDSKDSTYSMSSTLTLTKDEYERHNSYTCEATHKTSTSPIVKSFNRNEC |  | no binding | no binding |  | 
